Measured values taken from paper doi:10.1101/2022.01.27.478073 (bioRxiv, 2022).

Molecular target: T1, His-AtNRT1.4 (Arabidopsis, UniProt Q9SZY4 1-577)
T1 sequence (looked up): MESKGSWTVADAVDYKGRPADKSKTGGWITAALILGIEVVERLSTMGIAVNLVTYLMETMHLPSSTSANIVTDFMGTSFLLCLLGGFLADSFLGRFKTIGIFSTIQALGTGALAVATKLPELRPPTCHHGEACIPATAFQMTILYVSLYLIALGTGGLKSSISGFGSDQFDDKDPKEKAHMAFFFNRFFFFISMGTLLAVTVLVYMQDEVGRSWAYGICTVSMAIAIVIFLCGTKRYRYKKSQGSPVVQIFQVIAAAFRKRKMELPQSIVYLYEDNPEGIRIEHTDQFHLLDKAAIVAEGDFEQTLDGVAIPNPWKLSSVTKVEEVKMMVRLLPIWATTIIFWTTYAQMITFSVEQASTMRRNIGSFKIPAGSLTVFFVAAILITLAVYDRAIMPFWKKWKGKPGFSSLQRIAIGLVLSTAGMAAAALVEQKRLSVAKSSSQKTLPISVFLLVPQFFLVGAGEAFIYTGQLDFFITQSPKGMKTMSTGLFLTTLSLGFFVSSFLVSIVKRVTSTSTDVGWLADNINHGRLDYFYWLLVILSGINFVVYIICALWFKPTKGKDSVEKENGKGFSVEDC
Assay: pull-down

binding result: binds
B1: GST-AtGPA1 (natural protein, Arabidopsis, UniProt P18064 1-383, looked up)
chain: MGLLCSRSRHHTEDTDENTQAAEIERRIEQEAKAEKHIRKLLLLGAGESGKSTIFKQIKLLFQTGFDEGELKSYVPVIHANVYQTIKLLHDGTKEFAQNETDSAKYMLSSESIAIGEKLSEIGGRLDYPRLTKDIAEGIETLWKDPAIQETCARGNELQVPDCTKYLMENLKRLSDINYIPTKEDVLYARVRTTGVVEIQFSPVGENKKSGEVYRLFDVGGQRNERRKWIHLFEGVTAVIFCAAISEYDQTLFEDEQKNRMMETKELFDWVLKQPCFEKTSFMLFLNKFDIFEKKVLDVPLNVCEWFRDYQPVSSGKQEIEHAYEFVKKKFEELYYQNTAPDRVDRVFKIYRTTALDQKLVKKTFKLVDETLRRRNLLEAGLL
